Numbering of substitutions follows the chain as printed.
Key:
[1] = biological target: T1, human ASGR-1 (wild type) (human, UniProt P07306 1-291); assay: flow cytometry, CHO-S:huASGR-1 cells, 11-point titration
T1 construct: also called wt ASGR1; huASGR-1
T1 sequence: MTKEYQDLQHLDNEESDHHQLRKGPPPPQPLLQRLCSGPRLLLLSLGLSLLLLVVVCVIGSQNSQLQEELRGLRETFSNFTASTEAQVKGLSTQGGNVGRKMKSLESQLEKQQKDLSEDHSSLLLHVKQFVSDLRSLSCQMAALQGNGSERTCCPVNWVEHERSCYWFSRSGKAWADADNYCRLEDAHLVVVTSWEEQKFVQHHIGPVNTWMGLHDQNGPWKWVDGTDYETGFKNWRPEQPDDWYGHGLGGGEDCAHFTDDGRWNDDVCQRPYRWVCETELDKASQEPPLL
Method in brief: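 CHO-S cells stably expressing human ASGR-1 were multiplexed with dye-labelled parental cells and mouse ASGR-1 cells (30K cells/well). Antibodies were run as an 11-point 1:2 series from 100 nM for 30 min at 4°C, with CaCl2 (1 mM) washes, anti-human IgG-APC detection and PI live gating. EC50 from four-parameter fits of duplicate median signals.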

[2] = biological target: T2, human ASGR-1 mutant construct H203 (human, UniProt P07306 1-291); assay: FACS, transfected CHO-S cells, mAb 5 ug/ml
T2 construct: Arg/Glu scanning: non-arginine residues were changed to arginine; Transiently expressed on CHO-S cells
T2 sequence: T1 sequence with H203R
Method in brief: (§1)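 Transiently transfected CHO-S cells expressing wild-type or mutant hASGR-1 incubated with antibody at 5 ug/ml, 1 h at 4 °C; bound antibody detected by Alexa Fluor 647 anti-Fc plus 7-AAD, by flow cytometry. Binding normalized to expression using an unaffected antibody (65C12), then to wild type; hits defined as >3× IQR above third quartile.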

[3] = biological target: T1, human ASGR-1 (wild type); assay: FACS, transfected CHO-S cells, mAb 5 ug/ml
Method in brief: as §1

[4] = biological target: T3, soluble human ASGR-1 carbohydrate binding domain (CBD; amino acid residues 154-281; N-terminal 6xHis tag) (human, UniProt P07306 154-281); assay: Octet BLI, mAb on AR2G tips, 1:1 fit
T3 construct: also called ASGR-1 CBD
T3 sequence: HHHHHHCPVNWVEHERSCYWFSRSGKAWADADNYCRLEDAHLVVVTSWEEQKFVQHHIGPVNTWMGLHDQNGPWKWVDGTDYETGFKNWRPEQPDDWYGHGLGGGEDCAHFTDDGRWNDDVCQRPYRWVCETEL

B1: 193E7 (antibody, V domains shown)
VH: QVQLQQWGAGLLKPSETLSLTCAVYGGSFSGYFWTWIRQPPGKGLEWIGEINHSGSTNYNPSLKSRVTISVDTSKNQFSLKLSSVTAADTAVYYCARDYGADYWGQGTLVAVSA
VL: DIQMTQSPSSLSASVGDRVTITCRASQGIRNDLGWYQQKPGKAPKRLIYSASSLQRGVPSRFSGSGSGTEFTLTISSLQPEDFATYYCLQHKRYPLTFGGGTKVEIK
notes: mAb
EC50 [1]: 0.13 nM | FACS Binding Geomean [2]: 13800 | FACS Binding Geomean [3]: 35500 | Kd [4]: 3.5 nM

Source: US20190248902A1 (published 2019)
